Target: T1, CREB B-ZIP DNA binding domain (UniProt P16220 269-327)
T1 sequence: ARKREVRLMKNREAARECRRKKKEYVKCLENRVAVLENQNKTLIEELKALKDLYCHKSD
Test: EMSA

B1: CRE 28-mer unmethylated (U) (dsDNA)
DNA 1: GTCAGTCAGATGACGTCATATCGGTCAG
DNA 2: CTGACCGATATGACGTCATCTGACTGAC
Question: Does B1 bind?
Answer: binds

— PMC4205155
